{
  "source": "the DeepSol protein solubility set",
  "data": [
    {"test": "soluble on expression in E. coli; label from the status in PepcDB or PDB records", "values": [
      {"sequence": "MGKLMEIIIISGRSGAGKSVALRALEDAGYYCVDNIPLDLLPQLTDILSQSQSSVAISLDIRNIPNSAHSLKQTLSTLQKHHQIKIIFLEADRATLIRRYSDSRRLHPLSLKDLSLEAAIDEEYRYLEPLIQHANLILDTTHLSTHSLAERLREFLRGNSEKELKIIVESFGFKYGIPLDADYVFDVRFLPNPHWDPTLRPMTGLEAPVAEFLNSHTEVNEFIYLTRHYIDTWLPMLEKNNRSYLTIAIGCTGGKHRSVYIAQQLGEYFQAKGKTVKIQHKSLERNKKI", "soluble on expression in E. coli": "not soluble"},
      {"sequence": "DTGTISTEEFYNFDNWKGFGYELFEDWSRWVYDWLPDGWNLWKELDRNRSGQYHIYDPLALDLDGDGIETVAAKGFSGSLFDHNGNGIRTATGWVSADDGLLVRDLNGNGIIDNGAELFGDNTKLADGSFAKHGYAALAELDSNGDNIINAADAAFQSLRVWQDLNQDGISQANELRTLEELGIQSLDLAYKDVNKNLGNGNTLAQQGSYTKTDGTTAKMGDLLLAADNLHSRFTNKMLSISHVRENTISPFVLGCLNK", "soluble on expression in E. coli": "not soluble"},
      {"sequence": "PVYAGGQVARGGQLGVLGNADIMDVPFTMTSYTEQLIEDQQAEDVGDVLLNDASVRQSSGYANASKIFVIRGLKLTTDDISYNGLYGVLPRQIISTDALERVEVFKGPNA", "soluble on expression in E. coli": "not soluble"},
      {"sequence": "MINEHYIPQAVILANGEYPAHELPLRLLAEAQFVVCCDGAANEYISRGHTPDVIIGDGDSLLPEYKKRFSSIILQISDQETNDQTKAVHYLQSKGIRKIAIVGATGKREDHTLGNISLLVEYMRSGMEVRTVTDYGTFIPVSDTQSFASYPGQQVSIINFGAKGLKAEGLFYPLSDFTNWWQGTLNEAIADEFTIHCTGEYLVFLAY", "soluble on expression in E. coli": "soluble"},
      {"sequence": "MGSDKIHHHHHHMRPATALSVTACGPVSTSRPRAASRAAIRLSSGERRFLIDIDVSKPRLRPMTAMTPTLALERSAASGKVAPTPADLSITVRDRRFGRNSPPGRWWLAGDPVATAWHNALSATFPRGEAFFIEAVKAHREGASPKLEAEIRAFVKQEINHTREHIAFNRAAENAGYDIARIDKRVEEMLALTKDRPVILNLAATMALEHYTAMMAHEFLANPAHFAGAEQEAADMWRWHAIEEIEHKGVAYDTWLHATRDWSRWKRWKVKSLMMVVVTKNFITHRVEDTLDLLAQDGLTGAKWKWRLAAYLLWKPGVIRRILPAWLGYFLPGFHPWKHDDRALIGKADSEFTDAVMPG", "soluble on expression in E. coli": "not soluble"},
      {"sequence": "MRTNAFEAVARYVYPSLRRRLVEILRERGLTQIQIAELLHITQSAVSRYLRMNRGALIEVEKFQDIDEKLKGLADTIVREKPDEYYIHGELVKIAVEMLGKGYVCSFHSKVDPEIDPKLCRICIETFGLEHHHHHH", "soluble on expression in E. coli": "soluble"},
      {"sequence": "MGSDKIHHHHHHMRSNNNNPLTRDEILSRYFPQYRPAVATSQGLSGGSCIIAHDTHRVVLRRHHDPDAPPAHFLRHYRALSQLPASLAPRALFYTPGWMAVEYLHGVVNSALPDADELAALLYHLHQQPRFGWRIALSPLLAQYWSCCDPARRTPFWLRRLKQLQKNGEPRPLRLAPLHMDVHGDNIVLTSAGLRLIDWEYAGDGDIALELAAVWVEDERQHRQLADAYAARARIDARQLWRQIRLWHPWVIMLKAGWFEYRWRQTGEQQFIRLADETWRQLRMKG", "soluble on expression in E. coli": "not soluble"},
      {"sequence": "MGRVFMVDLEGNIYICKLCKTHLSTDQDIMSKSFQCKNGRAYLFNNVVNVSVGEKEDRMMITGLHNVVDIFCVGCGSNVGWKYEFAHEKSQKYKEGKSVLELYKISGPHDSNDLVSDGDDA", "soluble on expression in E. coli": "not soluble"},
      {"sequence": "MGSDKIHHHHHHMNLLSLYHFFAGKASDKQKEAIKRWAESSPDNYETLCREKKIFDAGILLVDKKELFQKENAPLLYKLINYTVKIAAVVLLVVVSVTIYKYQELVKKSEVLQTILVPAGQRINIILPDSTFVCLNSNTKFSYPSVFATNNRKVKLDGEAYFEVSANKNKPFYVHTSKGEIKVLGTHFNLEAYSNADVFKTSLFEGKVRVRVKGNNIYLKPDQMVCYHKNGKIHLETIHDYDQFRWREGLICIKSAKLKDIMKTFTKYFGDSIVIQNKEVEHYKYTGKFRQSRGVINALRLLQKDAPFTIEQDEDKQIIYIK", "soluble on expression in E. coli": "not soluble"}
    ]}
  ]
}
